Data published in the RNAGym collection of RNA variant scans (doi:10.1073/pnas.2313332121).
Fewer inactive variants are shown than the library holds.

B1: TPR 5TU (parent)
chain: GGAUCUUCUCGAUCUAACAAAAAAGACAAAUCUGCCACAAAGCUUGAGAGCAUCUUCGGAUGCAGAGGCGGCAGCCUUCGGUGGCGCGAUAGCGCCAACGUUCUCAACUAUGACACGCAAAACGCGUGCUCCGUUGAAUGGAGUUUAUCAUG

Variants of: B1
Assay: polymerase ribozyme fitness, log enrichment relative to wild type (log ratio); higher = more active; in vitro selection for triplet polymerase activity
In short: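 Only genotypes with ≥10 input reads and ≥1 read per output were kept after Illumina sequencing of input and output libraries. These libraries were PCR-built, transcribed mutants of each subunit of a heterodimeric triplet polymerase ribozyme, each put through one triplicate in vitro selection round with frozen incubation at −7 °C, gel excision of extended constructs, streptavidin-bead capture and RT-PCR. Fitness is a logarithmic ratio of genotype enrichment to wild-type enrichment, from inverse-variance-weighted replicate averages, with the logarithm in base 2.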

Point of comparison: GGAUCUUCUCGAUCUAACAAAAAAGACAAAUCUGCCACAAAGCUUGAGAACCUCUUCGGAUGCAGAGGCGGCAGCCUUCGGUGGCGCGAUAGCGCCAACGUUCUCAACUAUGACACGCAAAACGCGUGCUCCGUUGAAUGGAGUUUAUCAUG, “polymerase ribozyme fitness (log ratio)” value -3.13. Against it:
- GGAUCUUCUCGAUCUAACAAAAAAGACAAAUCUGCCACAAAGCUUGAGUGCAUCUACGGAUGCAGAGGCGGCAGCCUUCGGUGGCGCGAUAGCGCCAAGGUUCUCAACUAUGACACGCAAAACGCGUGCUCCGUUGAAUGGAGUUUGUCAUG — lower, ≤ -4.2
- GGAUCUUCUCGAUCUAACAAAAAAGACAAAUCUGCCACAAAGCUUGAGAACCUCUUCGGAUGCAGAGGCGGCAGCCUUCGGUGGCGCGAUAGCGCCGACAUUCUCAACUAUGAGACGCAAAACGCGUGCUCCUUUGAAUGGAGUUUAUCAUG — lower, ≤ -4.2
- GGAUCUUCUCGAUCUAACAAAAAAGACAAAUCUGCCACAAAGCUUGAGAACAUCUUCGGAUGCAGAGGCGGCAGCCUUCGGUGGCGCGAUAGCGCCAACGUUCUCGACUAUGACACGUAAAACGCGUGCUCCGUUGAAUGGAGUUUAUCAUG — higher, -1.6
- GGAUCUUCUCGAUCUAACAAAAAAGACAAAUCUGCCACAAAGCUUGAGAACAUCUUCGGAUGCAGAGGCGGCAGCCUUCGGUGGCGCGUUAGCGCCAAUGUUCUCAACUAUGACACGCAAAACGCGUGCUCCGUUGAAUGGAGUUUAUCAUG — within 0.2 log units, -2.94
- GGAUCUUCUCGAUCUAACAAAAAAGACAAAUCUGCCACAAAGCUUGAGUGCAACUUCGGAUGCAGAGGCGGCAGCCUUCGGUGGCAAGGUAGCGCCAACGUUCUCAACUAUGAUACGCAAAACGCGUGCUCCGUUGAAUGGAGUUUAUCAUG — lower, ≤ -4.2
- GGAUCUUCUCGAUCUAACAAAAAAGACAAAUCUGCCACAAAGCUUGAGUGCAUCUUCGGAUGCAGAGGCGGCAGCCUUCGGUAGCGCGAUAGCGCCAACGUUCUCAACUAUGACACGCAAAACGCGUGCUCCGUUGAAUGGAGUAUAUCAUG — higher, -1.1
- GGAUCUUCUCGAUCUAACAAAAAAGACAAAUCUGCCACAAAGCUUGAGAACAUCUUCGGUUGCAGAGGCGGCAGCCUUCGGUGGCGCGAUAGCGCUAACGUUCUCAACUAUGACACGCAAAACGCGAGCUCCGUUGAAUGGAGUUUAUCAUG — lower, -3.79
- GGAUCUUCUCGAUCUAACAAAAAAGACAAAUCUGCCACAAAGCUUGAGUGCAACUUCGGAUGCAGAGGCGGCAGCCUUCGGUGGCGCGAUAUCGCCAACGUUCUCAACUAUGACAAGCAAAACGCGUGCUCCGUUGAAUGGAGUUUAUCAUG — higher, -1.33
- GGAUCUUCUCGAUCUAACAAAAAAGACAAAUCUGCCACAAAGCUUGAGAACAUCUUCGGAUGCAGAGGCGGCAGCCUUCGGUGGCGCGAUUGCGCCAAUGUUGUCAAUUAUGACACGCAAAACGCGUGCUCCGUUGCAUGCAGUUUAUCAUG — lower, ≤ -4.2
- GGAUCUUCUCGAUCUAACAAAAAAGACAAAUCUGCCACAAAGCUUGAGAACAUCUUCGGAUGCAGAGGCGGCAGCCUUCGGUGGCGCGAUGGCGCCAAUGUUGUCAACUAUGACACGCAAAACGCGUGCUCCGUUGAAUGGAGUUUAUCAUG — lower, ≤ -4.2
- GGAUCUUCUCGAUCUAACAAAAAAGACAAAUCUGCCACAAAGCUUGAGUGCAUCGUCGGAUGCAGAGGCGGCAGCCUUCGGUGGCGCGAUAGCGCCAACGUUAUCAACUACGACACGCAAAACGCGUGCUCCGUUGAGUGGAGUUUAUCAUA — lower, ≤ -4.2
- GGAUCUUCUCGAUCUAACAAAAAAGACAAAUCUGCCACAAAGCUUGAGAACAUCUUCGGAUGCAGAGGCGGCAGCCUUCGGUGGCGCGAUUGCGCCAACUUUCUCAACUAUGACACGCAAAACGAGUGCUCCGUUGAAUGGAGUUUAUCAUG — lower, ≤ -4.2
- GGAUCUUCUCGAUCUAACAAAAAAGACAAAUCUGCCACAAAGCUUGAGAACAUCUUCGGAUGCAGAGGCGGCAGCCUUCGGUGGCGCGAUAGCGCCAACGUUCUCAACUAUGACGCGCAAAACGCGUGCUCCGUUGAAUGGAGUUUAUCAUG — higher, -2.49
- GGAUCUUCUCGAUCUAACAAAAAAGACAAAUCUGCCACAAAGCUUGAGUGCAUCUUCGGAUGCAGAGGCGGCAGCCUUCGGUGGCGCGAUAGCGCCAACGUUCUCAACUAUGACACGCAAAACGCGUGCUCCGUUGAAUGAAGUUUGUCAUG — lower, ≤ -4.2
- GGAUCUUCUCGAUCUAACAAAAAAGACAAAUCUGCCACAAAGCUUGAGAACAUCUUCGGAUGCAGAGGCGGCAGCCUUCGGUGGCGCGAUAGCGCCAACGUUCUCAUCUAUGACACGCAAAACGCGUGCUCCGUUGAAUGGAGUUUAUCAUG — lower, -4.13
- GGAUCUUCUCGAUCUAACAAAAAAGACAAAUCUGCCACAAAGCUUGAGAACAUCUUCGGAUGCCGAGGCGGCAGCCUUCGGUGGCGCGAUAGCGGCAACGUUCUCAACUAUGAUACGCAAAACGCGUGCUCCGUUGAAUGGAGUUUAUCAUG — lower, ≤ -4.2
- GGAUCUUCUCGAUCUAACAAAAAAGACAAAUCUGCCACAAAGCUUGAGAACAUCUUCGGAUGCAGAGGCGGCAGCCUUCGGUGGCGCGAUUGCGCCAACGUUCUCAACUAUGACACGCAAAACGCGUGCUCCGUUGAAUGGAGUUUAUCAUG — lower, ≤ -4.2
- GGAUCUUCUCGAUCUAACAAAAAAGACAAAUCUGCCACAAAGCUUGAGAACCUCUUCGGAUGCAGAGGCGGCAGCCUUCGGUGUCGCGAUAGCGCCAACGUUCUCAACUAUGACACGCAAAUCGCGUGCUCCGUUGAAUGUAGUUUAUCAUG — lower, -3.68
- GGAUCUUCUCGAUCUAACAAAAAAGACAAAUCUGCCACAAAGCUUGAGAACAUCUUCGGAUGCAGAGGCGGCAGCCUUCGGUGGCGCGAUAGCGCCAACGUUCUCAACUGUGACACGCAAAACGCGUGCUCCGUUGAAUGGAGUUUAUCAUG — lower, -3.88
- GGAUCUUCUCGAUCUAACAAAAAAGACAAAUCUGCCACAAAGCUUGAGUGCAUCUUCGGAUGCAGAGGCGGCAGCCUUCGGGGGCGCGAUAGCGCCAACGUUCUCAACUAUGACACGCAAAACGCGUGCUCCGUUGAAUGGAGUUUAUCAUG — higher, -0.129
- GGAUCUUCUCGAUCUAACAAAAAAGACAAAUCUGCCACAAAGCUUGAGUGCAACUUCGGAUGCGGAGGCGGCAGCCUUCGGUGUCGCGACAGCGCAGACGUUCUCAACUAUGACACGCAAAACUCGUGCUCCGUUGAAUAGAGUUUAUCAUG — lower, ≤ -4.2
- GGAUCUUCUCGAUCUAACAAAAAAGACAAAUCUGCCACAAAGCUUGAGUGCAUCUUCGGAUGCAGAGGCGGCAGCCUUCGGUGGCAGGAUAGCGCCAACGUUCUCCACUAUGACACGCAAAACGCGUGCUCCGUUUAAUGGAGUUUAUCCUG — lower, ≤ -4.2
- GGAUCUUCUCGAUCUAACAAAAAAGACAAAUCUGCCACAAAGCUUGAGUGCAUCUUCGGAUGCAGAGGCGGCAGCCUUCGGUGGCGCGAUAGCGCCAACGUUCUCAACUAUGACACGCAAAACGCGUGCUCCGUUAAAUGAAGUUUAUCAUG — higher, -0.805
- GGAUCUUCUCGAUCUAACAAAAAAGACAAAUCUGCCACAAAGCUUGAGAACAUCUUCGGAUGCAGAGGCGGCAGCCUUCGGUGGCGCGAUAGCGCCGACGUUCUCAACUAUGACACGCAAAACGCGUGCUCCGUUGACUGGAGUUUAUCAUG — lower, -4.01
- GGAUCUUCUCGAUCUAACAAAAAAGACAAAUCUGCCACAAAGCUUGAGAACAUCUUCGGAUGCAGAGGCGGCAGCCUUCGGUGGCGCGAUAGCGCCAACGUUCUCAACUAUGACACGCAAAACGCGUGCUCCGUUGAAUGGAGUUUAUCAUG — higher, -1.02
- GGAUCUUCUCGAUCUAACAAAAAAGACAAAUCUGCCACAAAGCUUGAGUGCAUCUGCGGAUGCAGAGGCGGCAGCCUUCGGUGGUUCGAUAGCGCCAACGUCCUCAACUAUGACACGCAAAACGCGUGCUCCGUUGAAUGGAGUUUAUCAUG — lower, ≤ -4.2
- GGAUCUUCUCGAUCUAACAAAAAAGACAAAUCUGCCACAAAGCUUGAGUGCAUCUUCGGAAGCAGAGGCGGCAGCCUUCGGUGGCGAGAUAGCGCCAACGUUCUCAACUAUGACACGCAAAACGCGUGCUCCGUUGAAUCGAGUUUAUCAUG — lower, ≤ -4.2
- GGAUCUUCUCGAUCUAACAAAAAAGACAAAUCUGCCACAAAGCUUGAGAACAUCUUCGGCUACAGAGGCGGCAGCUUUCGGUGGCGCGAUAGCGCUAACUUUCUCAAGUAUGACACGCAAAACGCGUGCUCCGUUGAAUGGAGUUUAUCAUG — lower, ≤ -4.2
- GGAUCUUCUCGAUCUAACAAAAAAGACAAAUCUGCCACAAAGCUUGAGUGCAUCUUCGGAUGCAGAGGCGGCAGCCUUCGGUGGCGCAAUAGCGCCAACGUUCUCAACUAUGACACGCAAAACGCGUGCUCCGUUGAAUGGAGUUUAUCAUG — lower, ≤ -4.2
- GGAUCUUCUCGAUCUAACAAAAAAGACAAAUCUGCCACAAAGCUUGAGUGCAUCUUCGGAUGCAGAGGCGGCAGCCUUCAGUGGCGCGAUAGCGCCAACGUUCUCAACUAUGACACGCAAAACGCGUGCUCCGUUGAAUGGAGUUUAUCAUG — lower, -3.76
- GGAUCUUCUCGAUCUAACAAAAAAGACAAAUCUGCCACAAAGCUUGAGAACUUCUUCGGAUGCAGAGGCGGCAGCCUCCGGUGGCGCGAUAGCGCCAACGUUCUCAACUAUGACAAGCAAAACGCGUGCUCCGUUGAAUGGAGUUUAUGAUG — lower, ≤ -4.2
- GGAUCUUCUCGAUCUAACAAAAAAGACAAAUCUGCCACAAAGCUUGAGAACAUCUUCGGCUGCAGAGGCGGCAGCCUUCGGUGGCACGAUAGCGCCAACGUUCUCAACUAUGACACGCAAAACGCGUGCUCCGUUGAAUGGAGUUUAUCAUG — lower, -3.81
- GGAUCUUCUCGAUCUAACAAAAAAGACAAAUCUGCCACAAAGCUUGAGAACAUCUUCGGAUGCAGGGGCGGCAGCCUUCGGUGGCGCGAUAGCGCCAACGUUCUCAACUAUGACACGCAAAACGCGUGCUCCGUUGAAUGGAGUUUAUCAUG — lower, -3.75
- GGAUCUUCUCGAUCUAACAAAAAAGACAAAUCUGCCACAAAGCUUGAGUGCAUCUUCGGAUGCAGAGGCGGCAGCCUUCGGUGGCGCGAUAGCGCCAACGCUCUCAACUAUGACAUGCAAAACGCGUGCUCCGUUGAAUGGAGUUUAUCAUG — higher, -1.49
- GGAUCUUCUCGAUCUAACAAAAAAGACAAAUCUGCCACAAAGCUUGAGUGCAUCUGCGGAUGCAGAGGCGGCAGCCUUCGAUGGCGCGAUAGCACCAACGUUCUCAACUAUGACACGCAAAACGCGUGCUCCGUUGAAUGGAGUUGAUCAUG — lower, ≤ -4.2
- GGAUCUUCUCGAUCUAACAAAAAAGACAAAUCUGCCACAAAGCUUGAGUGCAUCUUCGGAAGCAGAGGCGGCAGCCUUCGGUGGCGCGAUAGCGCCAACGUUCUCAACUAUGACACGCAAAACGCGUGCUCCGUUGACUCGAGUUUAUCAUG — lower, ≤ -4.2
- GGAUCUUCUCGAUCUAACAAAAAAGACAAAUCUGCCACAAAGCUUGAGAACCUCUUCGGAUGCAGAGGCGGCAGCCUUCGCUGGCGCGAUAGCGCCAACGUUCUCAACUAUGACACGCAAAACGCGUGCUCCGUUGAAUGGAGUUUAUCAUG — higher, -2.82
